Data reported in the supplement of paper PMC7877785.
± gives the uncertainty stated by the source.

Experiment: self-splicing fitness, log relative to wild type (ln ratio); higher = more splicing; Tetrahymena group I intron in knt gene, E. coli kanamycin selection, DiMSum; sequences stand for … in CUCUCU…GGAGGGAAAAGUUAUCAGGCAUGCACCUGGUAGCUAGUCUUUAAACCAAUAGAUUGCAUCGGUUUAAAAGGCAAGACCGUCAAAUUGCGGGAAAGGGGUCAACAGCCGUUCAGUACCAAGUCUCAGGGGAAACUUUGAGAUGGCCUUGCAAAGGGUAUGGUAAUAAGCUGACGGACAUGGUCCUAACCACGCAGCCAAGUCCUAAGUCAACAGAUCUUCUGUUGAUAUGGAUGCAGUUCACAGACUAAAUGUCGGUCGGGGAAGAUGUAUUCUUCUCAUAAGAUAUAGUCGGACCUCUCCUUAAUGGGAGCUAGCGGAUGAAGUGAUGCAACACUGGAGCCGCUGGGAACUAAUUUGUAUGCGAAAGUAUAUUGAUUAGUUUUGGAGUACUCGUGGUCG
Summary of the method: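 Library with all eight P1ex-region intron nucleotides randomised, intron inside the knt kanamycin-resistance gene on pET-22b(+), in E. coli BL21(DE3). Cells grew overnight at 37°C or 30°C on LB agar with or without 25 μg/mL kanamycin (plus 100 μg/mL carbenicillin, 50 μM IPTG, 0.2% rhamnose), in six replicate transformations. Pooled colonies were amplicon-sequenced on Illumina HiSeq 2500. DiMSum fitness is the error-weighted combination of wild-type-normalised replicate fold changes, kanamycin versus none.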

Sequence | self-splicing fitness (ln) (30 °C) | self-splicing fitness (ln) (37 °C)
GAGUAGCAAUAUUACGAGCG | -2.04 ± 0.075 | -0.489 ± 0.077
GAGUAGCAAUAUUACGAGUU | -2.27 ± 0.095 | -0.98 ± 0.1
GAGUAGCAAUAUUACGAUUG | -2.87 ± 0.25 | -2.14 ± 0.19
GAGUAGCAAUAUUACGAUUU | -0.387 ± 0.086 | -0.312 ± 0.1
GAGUAGCAAUAUUACGCAAA | -2.45 ± 0.44 | -1.63 ± 0.22
GAGUAGCAAUAUUACGCCAA | -1.98 ± 0.43 | -1.66 ± 0.32
GAGUAGCAAUAUUACGCGUA | -2.66 ± 0.33 | -0.648 ± 0.29
GAGUAGCAAUAUUACGCUAA | -1.92 ± 0.15 | -1.97 ± 0.2
GAGUAGCAAUAUUACGCUGG | -2.77 ± 0.29 | -1.48 ± 0.25
GAGUAGCAAUAUUACGGGUA | -2.78 ± 0.35 | -2.54 ± 0.26
GAGUAGCAAUAUUACGUACC | -1.54 ± 0.17 | -0.923 ± 0.27
GAGUAGCAAUAUUACGUACG | -2.67 ± 0.18 | 0.056 ± 0.13
GAGUAGCAAUAUUACGUCAG | -2.86 ± 0.17 | -2.24 ± 0.34
GAGUAGCAAUAUUACGUUCA | -0.849 ± 0.075 | -0.31 ± 0.095
GAGUAGCAAUAUUACGUUGA | -2.27 ± 0.27 | -2.76 ± 0.36
GAUAAGCAAUAUUACGAAAU | -1.13 ± 0.13 | -1.11 ± 0.15
GAUAAGCAAUAUUACGAACC | -0.954 ± 0.1 | -0.647 ± 0.13
GAUAAGCAAUAUUACGAACU | -0.896 ± 0.079 | -0.073 ± 0.11
GAUAAGCAAUAUUACGAAGG | -2.27 ± 0.15 | -1.86 ± 0.2
GAUAAGCAAUAUUACGAAUU | -3.63 ± 0.26 | -2.76 ± 0.25
GAUAAGCAAUAUUACGACUC | 0.0338 ± 0.1 | 0.785 ± 0.13
GAUAAGCAAUAUUACGAGAU | -3.66 ± 0.21 | -2.14 ± 0.21
GAUAAGCAAUAUUACGAGCU | -0.688 ± 0.11 | -1.13 ± 0.12
GAUAAGCAAUAUUACGAGGA | -2.86 ± 0.29 | -2.12 ± 0.27

Sequence | self-splicing fitness (ln) (30 °C) | self-splicing fitness (ln) (37 °C)
GAUAAGCAAUAUUACGAUUG | -2.59 ± 0.11 | -1.82 ± 0.18
GAUAAGCAAUAUUACGCAGG | -1.69 ± 0.13 | -2.95 ± 0.21
GAUAAGCAAUAUUACGCAUC | -3.06 ± 0.23 | -1.21 ± 0.35
GAUAAGCAAUAUUACGCCCA | -0.168 ± 0.13 | -0.865 ± 0.14
GAUAAGCAAUAUUACGCGGG | -2.89 ± 0.11 | -2.34 ± 0.12
GAUAAGCAAUAUUACGCGGU | -3.19 ± 0.25 | -1.01 ± 0.19
GAUAAGCAAUAUUACGCUAG | -2.45 ± 0.15 | 0.0994 ± 0.13
GAUAAGCAAUAUUACGCUUA | -3.59 ± 0.31 | -2.91 ± 0.23
GAUAAGCAAUAUUACGGAAC | -3.85 ± 0.42 | -1.6 ± 0.18
GAUAAGCAAUAUUACGGAAG | -3.56 ± 0.35 | -1.95 ± 0.23
GAUAAGCAAUAUUACGGACC | -1.24 ± 0.25 | -1.4 ± 0.28
GAUAAGCAAUAUUACGGACG | -1.08 ± 0.13 | -0.201 ± 0.14
GAUAAGCAAUAUUACGGAUC | -1.37 ± 0.18 | -0.674 ± 0.25
GAUAAGCAAUAUUACGGCGU | 0.319 ± 0.077 | 0.486 ± 0.1
GAUAAGCAAUAUUACGGGCU | -1.95 ± 0.11 | -1.91 ± 0.16
GAUAAGCAAUAUUACGGUCC | – | -3.48 ± 0.46
GAUAAGCAAUAUUACGUAAA | -2.24 ± 0.17 | -1.19 ± 0.17
GAUAAGCAAUAUUACGUCAU | -2.38 ± 0.086 | -1.62 ± 0.095
GAUAAGCAAUAUUACGUCGG | -3.81 ± 0.35 | -3.35 ± 0.28
GAUAAGCAAUAUUACGUGAU | -2.21 ± 0.12 | -0.957 ± 0.12
GAUAAGCAAUAUUACGUUAG | -5.21 ± 0.45 | -2.27 ± 0.22
GAUAAGCAAUAUUACGUUGA | -2.88 ± 0.14 | -1.79 ± 0.14
GAUAAGCAAUAUUACGUUUA | -1.59 ± 0.12 | -0.982 ± 0.12
GAUCAGCAAUAUUACGAAGU | -1.17 ± 0.12 | -0.265 ± 0.13

Sequence | self-splicing fitness (ln) (30 °C) | self-splicing fitness (ln) (37 °C)
GAUCAGCAAUAUUACGACAC | 0.702 ± 0.14 | 0.591 ± 0.17
GAUCAGCAAUAUUACGACCC | -2.02 ± 0.2 | -1.65 ± 0.29
GAUCAGCAAUAUUACGACCG | -1.01 ± 0.11 | -0.323 ± 0.14
GAUCAGCAAUAUUACGACUU | 0.107 ± 0.092 | -0.119 ± 0.11
GAUCAGCAAUAUUACGAGCA | -1.26 ± 0.1 | -0.318 ± 0.1
GAUCAGCAAUAUUACGAUCC | -3.69 ± 0.37 | -2.18 ± 0.39
GAUCAGCAAUAUUACGCCGA | -0.954 ± 0.12 | -0.727 ± 0.11
GAUCAGCAAUAUUACGCGCC | -0.0847 ± 0.14 | -0.763 ± 0.17
GAUCAGCAAUAUUACGCUUC | -3.16 ± 0.22 | -2.25 ± 0.43
GAUCAGCAAUAUUACGGAGA | -2.08 ± 0.17 | -0.869 ± 0.14
GAUCAGCAAUAUUACGGCGC | -0.52 ± 0.11 | 0.0329 ± 0.14
GAUCAGCAAUAUUACGGGAA | -0.882 ± 0.13 | -1.04 ± 0.13
GAUCAGCAAUAUUACGGUGU | -0.951 ± 0.072 | 0.335 ± 0.093
GAUCAGCAAUAUUACGUACG | -1.5 ± 0.14 | -0.586 ± 0.14
GAUCAGCAAUAUUACGUAGG | -1.87 ± 0.1 | -1.48 ± 0.14
GAUCAGCAAUAUUACGUGAU | -3.23 ± 0.18 | -2.93 ± 0.22
GAUCAGCAAUAUUACGUUAG | -2.05 ± 0.12 | -1.92 ± 0.17
GAUCAGCAAUAUUACGUUGG | -3.67 ± 0.24 | -0.912 ± 0.12
GAUGAGCAAUAUUACGAAUU | -3.84 ± 0.47 | –
GAUGAGCAAUAUUACGACUU | -0.252 ± 0.071 | 0.118 ± 0.089
GAUGAGCAAUAUUACGAGAU | – | -3.21 ± 0.47
GAUGAGCAAUAUUACGAGUC | -4.11 ± 0.33 | -2.21 ± 0.19
GAUGAGCAAUAUUACGAUAU | -3.81 ± 0.21 | -2.58 ± 0.24
GAUGAGCAAUAUUACGCCAG | -3.63 ± 0.22 | -3.07 ± 0.4

Sequence | self-splicing fitness (ln) (30 °C) | self-splicing fitness (ln) (37 °C)
GAUGAGCAAUAUUACGCGCU | -1.97 ± 0.23 | -1.88 ± 0.45
GAUGAGCAAUAUUACGCUAU | -2 ± 0.38 | –
GAUGAGCAAUAUUACGCUCA | -1.18 ± 0.41 | -0.934 ± 0.42
GAUGAGCAAUAUUACGGACC | -0.753 ± 0.19 | -0.541 ± 0.22
GAUGAGCAAUAUUACGGAGG | -3.47 ± 0.26 | -3.23 ± 0.35
GAUGAGCAAUAUUACGGCGG | -3.43 ± 0.3 | -1.88 ± 0.26
GAUGAGCAAUAUUACGUACU | -1.85 ± 0.19 | -0.913 ± 0.26
GAUGAGCAAUAUUACGUCCA | -2.12 ± 0.36 | -2.26 ± 0.32
GAUGAGCAAUAUUACGUCUG | -2.66 ± 0.19 | -2.96 ± 0.28
GAUGAGCAAUAUUACGUGCA | -1.14 ± 0.12 | -1.82 ± 0.15
GAUGAGCAAUAUUACGUGCC | -2.92 ± 0.23 | -2.3 ± 0.42
GAUUAGCAAUAUUACGAACC | -0.528 ± 0.24 | -0.802 ± 0.37
GAUUAGCAAUAUUACGAAUA | -1.1 ± 0.29 | -0.71 ± 0.26
GAUUAGCAAUAUUACGAGGC | -4.11 ± 0.46 | -1.02 ± 0.28
GAUUAGCAAUAUUACGAUAC | -1.24 ± 0.19 | -0.415 ± 0.18
GAUUAGCAAUAUUACGAUGU | -0.783 ± 0.074 | -0.611 ± 0.1
GAUUAGCAAUAUUACGAUUU | -0.392 ± 0.12 | 0.757 ± 0.13
GAUUAGCAAUAUUACGCACC | -1.5 ± 0.081 | -0.681 ± 0.084
GAUUAGCAAUAUUACGCGGC | -3.08 ± 0.38 | -2 ± 0.35
GAUUAGCAAUAUUACGGAAG | -2.01 ± 0.24 | -2.18 ± 0.28
GAUUAGCAAUAUUACGGAUA | -1.36 ± 0.17 | 0.0656 ± 0.2
GAUUAGCAAUAUUACGGCAG | -2.78 ± 0.31 | -1.84 ± 0.23
GAUUAGCAAUAUUACGGCCC | -0.175 ± 0.083 | -0.352 ± 0.12
GAUUAGCAAUAUUACGGCCU | -1.39 ± 0.12 | -0.323 ± 0.098
